Test results as given in patent US20220289795, “EFFICIENT METHOD FOR PREPARING PPR PROTEIN AND USE OF THE SAME” (EditForce, Inc., published 2022).
Residue numbers refer to the chain shown, from its start.

Columns and labels:
Experiment in all cases: ELONA; RPB-ELISA
[1] = biological target: T1, NL_v2_PPR18 (Artificial Sequence); conditions: tags: N-term luciferase, C-term 6xHis; label: 5'-biotin
T1 chain: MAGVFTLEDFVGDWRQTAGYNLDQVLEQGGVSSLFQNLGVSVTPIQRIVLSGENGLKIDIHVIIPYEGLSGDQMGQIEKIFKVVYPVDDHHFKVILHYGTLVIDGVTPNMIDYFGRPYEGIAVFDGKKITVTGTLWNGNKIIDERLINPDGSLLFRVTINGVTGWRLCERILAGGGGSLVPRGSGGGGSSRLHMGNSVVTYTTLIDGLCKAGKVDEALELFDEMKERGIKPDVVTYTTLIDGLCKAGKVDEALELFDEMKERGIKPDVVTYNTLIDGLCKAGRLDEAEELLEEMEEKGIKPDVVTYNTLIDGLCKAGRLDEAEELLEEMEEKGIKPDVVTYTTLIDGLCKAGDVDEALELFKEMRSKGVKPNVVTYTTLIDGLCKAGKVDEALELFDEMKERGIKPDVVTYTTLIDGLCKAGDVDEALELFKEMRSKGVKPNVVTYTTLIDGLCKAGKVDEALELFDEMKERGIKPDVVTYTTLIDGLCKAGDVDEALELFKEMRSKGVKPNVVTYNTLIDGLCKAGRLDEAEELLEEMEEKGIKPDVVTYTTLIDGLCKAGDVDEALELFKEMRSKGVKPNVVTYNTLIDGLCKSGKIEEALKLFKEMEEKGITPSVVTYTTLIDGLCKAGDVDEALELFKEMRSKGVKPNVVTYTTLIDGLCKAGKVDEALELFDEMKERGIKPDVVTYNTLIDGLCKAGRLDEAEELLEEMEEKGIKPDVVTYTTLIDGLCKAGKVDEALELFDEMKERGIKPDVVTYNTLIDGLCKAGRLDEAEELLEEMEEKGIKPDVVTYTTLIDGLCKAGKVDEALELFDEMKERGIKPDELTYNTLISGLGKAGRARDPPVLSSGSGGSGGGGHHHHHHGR

[2] = biological target: T2, v3.1_PPR18 (Artificial Sequence); conditions: tags: luciferase fusion; label: 5'-biotin
T2 chain: T1 chain with D353K, D423K, D493K, D563K, D633K

[3] = biological target: T3, NL_v2_PPR16 (Artificial Sequence); conditions: tags: N-term luciferase, C-term 6xHis; label: 5'-biotin
T3 chain: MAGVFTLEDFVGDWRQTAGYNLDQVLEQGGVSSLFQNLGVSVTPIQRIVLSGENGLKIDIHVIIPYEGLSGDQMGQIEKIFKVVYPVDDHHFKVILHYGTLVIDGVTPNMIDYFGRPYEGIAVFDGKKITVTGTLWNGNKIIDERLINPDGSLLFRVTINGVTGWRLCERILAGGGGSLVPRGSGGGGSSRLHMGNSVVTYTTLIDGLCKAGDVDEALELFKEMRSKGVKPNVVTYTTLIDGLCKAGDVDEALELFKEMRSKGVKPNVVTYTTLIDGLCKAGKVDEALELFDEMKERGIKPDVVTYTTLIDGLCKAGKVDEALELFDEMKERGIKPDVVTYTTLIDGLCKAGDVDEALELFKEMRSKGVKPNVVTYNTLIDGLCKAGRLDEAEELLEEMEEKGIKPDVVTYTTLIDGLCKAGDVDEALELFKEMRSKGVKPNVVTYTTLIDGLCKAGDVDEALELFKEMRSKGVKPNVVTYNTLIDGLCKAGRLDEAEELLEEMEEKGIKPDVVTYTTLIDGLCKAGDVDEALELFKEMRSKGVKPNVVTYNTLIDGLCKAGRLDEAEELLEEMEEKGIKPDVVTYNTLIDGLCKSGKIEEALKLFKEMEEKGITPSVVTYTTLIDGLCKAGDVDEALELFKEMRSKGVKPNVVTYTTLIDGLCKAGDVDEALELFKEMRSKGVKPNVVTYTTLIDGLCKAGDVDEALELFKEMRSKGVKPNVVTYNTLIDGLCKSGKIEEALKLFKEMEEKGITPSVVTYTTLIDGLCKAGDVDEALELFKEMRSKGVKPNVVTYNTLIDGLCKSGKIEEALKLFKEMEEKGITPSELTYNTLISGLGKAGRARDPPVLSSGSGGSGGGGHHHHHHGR

[4] = biological target: T4, v3.1_PPR16 (Artificial Sequence); conditions: tags: luciferase fusion; label: 5'-biotin
T4 chain: T3 chain with D213K, D248K, D353K, D423K, D458K, D528K, D633K, D668K, D703K, D773K

[5] = biological target: T5, v3.1_PPR17 (Artificial Sequence); conditions: tags: luciferase fusion; label: 5'-biotin
T5 chain: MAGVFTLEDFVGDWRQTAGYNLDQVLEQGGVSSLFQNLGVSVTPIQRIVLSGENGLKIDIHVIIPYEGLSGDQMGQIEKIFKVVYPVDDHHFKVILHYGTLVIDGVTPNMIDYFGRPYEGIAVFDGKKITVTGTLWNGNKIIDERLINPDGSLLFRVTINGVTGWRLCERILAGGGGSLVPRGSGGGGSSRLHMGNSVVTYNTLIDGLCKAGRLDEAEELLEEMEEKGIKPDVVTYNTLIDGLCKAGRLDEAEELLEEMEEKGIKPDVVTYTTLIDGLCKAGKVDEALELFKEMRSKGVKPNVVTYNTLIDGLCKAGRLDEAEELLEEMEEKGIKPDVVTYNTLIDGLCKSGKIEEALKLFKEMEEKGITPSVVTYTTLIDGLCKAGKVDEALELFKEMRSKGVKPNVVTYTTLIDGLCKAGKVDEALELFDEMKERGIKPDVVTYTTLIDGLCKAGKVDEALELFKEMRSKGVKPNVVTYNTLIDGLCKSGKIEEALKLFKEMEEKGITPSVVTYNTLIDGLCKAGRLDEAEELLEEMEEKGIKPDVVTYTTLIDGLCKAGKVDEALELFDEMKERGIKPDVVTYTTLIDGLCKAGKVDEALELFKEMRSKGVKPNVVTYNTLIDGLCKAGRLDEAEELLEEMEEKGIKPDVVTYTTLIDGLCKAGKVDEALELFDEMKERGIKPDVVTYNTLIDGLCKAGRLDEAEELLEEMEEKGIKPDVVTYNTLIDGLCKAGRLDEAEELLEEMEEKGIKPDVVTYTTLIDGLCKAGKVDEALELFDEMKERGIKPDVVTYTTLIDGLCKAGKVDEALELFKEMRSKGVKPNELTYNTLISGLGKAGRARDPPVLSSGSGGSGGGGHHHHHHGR

B1: RNA_18 (ssRNA)
RNA: GACAUGCGGUUAGAGAUACAGUGUGGACUG
B1 was tested, and the binding signal [1] was 1.1e+07 luminescence and the binding signal [2] was 2.9e+07 luminescence.

B2: RNA_16 (ssRNA)
RNA: GACAUGCAAGGAUAAUAUCAAACACGACUG
In the case of B2, the binding signal [3] is reported as 2.8e+07 luminescence and the binding signal [4] is reported as 6.3e+07 luminescence.

B3: RNA_17 (ssRNA)
RNA: GACAUGCUUAUCAGACUGAUGUUGAGACUG
Work on B3 yielded a binding signal [5] of 3.3e+07 luminescence.
